Measured values as given in patent EP4725963A1 (Jiangsu Hengrui Pharmaceuticals Co., Ltd., dated 2026).
Positions count from the first letter of the chain named.

T1: human NPR1 full-length protein overexpressed on CHO-K1 cells (human, UniProt P16066 33-1061)
T1 sequence: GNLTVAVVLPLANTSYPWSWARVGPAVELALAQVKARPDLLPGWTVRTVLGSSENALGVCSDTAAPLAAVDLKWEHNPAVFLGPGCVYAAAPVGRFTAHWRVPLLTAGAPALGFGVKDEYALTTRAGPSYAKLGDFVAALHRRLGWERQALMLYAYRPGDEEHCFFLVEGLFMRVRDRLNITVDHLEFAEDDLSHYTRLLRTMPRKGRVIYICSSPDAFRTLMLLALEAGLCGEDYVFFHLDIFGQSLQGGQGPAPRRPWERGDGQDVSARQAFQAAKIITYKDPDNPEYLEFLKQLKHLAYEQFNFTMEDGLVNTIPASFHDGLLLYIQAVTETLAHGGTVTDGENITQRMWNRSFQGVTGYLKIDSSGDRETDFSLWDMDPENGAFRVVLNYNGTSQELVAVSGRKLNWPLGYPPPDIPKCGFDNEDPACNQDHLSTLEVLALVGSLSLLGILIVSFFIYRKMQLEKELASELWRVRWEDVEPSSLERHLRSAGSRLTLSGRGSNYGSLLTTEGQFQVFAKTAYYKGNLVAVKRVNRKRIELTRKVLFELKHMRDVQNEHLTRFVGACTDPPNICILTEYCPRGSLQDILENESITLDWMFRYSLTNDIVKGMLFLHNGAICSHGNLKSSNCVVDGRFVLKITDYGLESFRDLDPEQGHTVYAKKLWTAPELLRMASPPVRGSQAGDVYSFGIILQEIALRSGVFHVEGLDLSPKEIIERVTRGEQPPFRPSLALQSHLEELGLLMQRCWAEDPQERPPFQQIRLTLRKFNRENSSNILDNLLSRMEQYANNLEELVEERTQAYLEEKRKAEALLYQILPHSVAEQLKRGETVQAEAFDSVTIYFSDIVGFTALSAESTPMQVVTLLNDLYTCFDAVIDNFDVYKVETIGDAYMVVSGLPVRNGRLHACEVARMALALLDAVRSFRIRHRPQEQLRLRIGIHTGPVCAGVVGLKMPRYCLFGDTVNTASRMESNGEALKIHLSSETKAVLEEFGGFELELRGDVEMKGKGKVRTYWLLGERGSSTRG

B1: Hu135H1L1 (antibody, human IgG1, kappa, L234A L235A, V domains shown)
VH: DVKLVESGEGLVKPGGSLRLSCAASGFTFSTYGMSWVRQAPGKRLEWVAYINSGGNYIYYADTVKGRFTISRDNAKNSLYLQMNSLRAEDTAVYYCTRDRTTIVVHWYFDVWGQGTTVTVSS
VL: DIQLTQSPSSLSASVGDRVTITCSASSSLNFMHWYQQKPGKSPKRWIYDTSKLASGVPSRFSGSGSGTDYTLTISSLQPEDFATYYCHQRSSTFGGGTKVEIKR
B2: Hu135H2L1 (antibody, human IgG1, kappa, L234A L235A, V domains shown)
VH: B1 VH with T28S, F29I
VL: B1 VL
B3: Hu127H4L1 (antibody, human IgG1, kappa, L234A L235A)
heavy: not shown
light: DIVMTQSPDSLAVSLGERATINCRASESVDSYGNSFMHWYQQKPGQPPKVLIYLASTLESGVPDRFSGSGSRTDFTLTISSLQAEDVAVYYCQQNNEDPLTFGQGTKLEIKRTVAAPSVFIFPPSDEQLKSGTASVVCLLNNFYPREAKVQWKVDNALQSGNSQESVTEQDSKDSTYSLSSTLTLSKADYEKHKVYACEVTHQGLSSPVTKSFNRGEC
B4: Hu127H4L3 (antibody, human IgG1, kappa, L234A L235A)
heavy: not shown
light: B3 light with D1N, M4L
B5: Hu127H7L1 (antibody, human IgG1, kappa, L234A L235A)
heavy: not shown
light: B3 light
B6: Hu127H8L1 (antibody, human IgG1, kappa, L234A L235A)
heavy: not shown
light: B3 light
B7: Hu127H7L3 (antibody, human IgG1, kappa, L234A L235A)
heavy: not shown
light: B3 light with D1N, M4L
B8: Hu127H8L3 (antibody, human IgG1, kappa, L234A L235A)
heavy: not shown
light: B3 light with D1N, M4L
B9: Hu127H4L5 (antibody, human IgG1, kappa, L234A L235A, V domains shown)
VH: EAYLVQSGAEVKKPGASVKVSCKASGYSFTGYFMNWVRQAPGKGLEWMGRINPYSGDTFYNQKFKGRVTLTVDKSTSTVYMELSSLRSEDTAVYYCARRGYGNRGYWYFDVWGQGTTVTVSS
VL: NIQLTQSPSSLSASVGDRVTITCRASESVDSYGNSFMHWYQQKPGKAPKVLIYLASTLESGVPSRFSGSGSRTDFTLTISSLQPEDFATYYCQQNNEDPLTFGQGTKLEIKR
B10: Hu127H4L6 (antibody, human IgG1, kappa, L234A L235A, V domains shown)
VH: B9 VH
VL: B9 VL with D17Q, A47P
B11: Hu127H7L5 (antibody, human IgG1, kappa, L234A L235A)
heavy: not shown
light: NIQLTQSPSSLSASVGDRVTITCRASESVDSYGNSFMHWYQQKPGKAPKVLIYLASTLESGVPSRFSGSGSRTDFTLTISSLQPEDFATYYCQQNNEDPLTFGQGTKLEIKRTVAAPSVFIFPPSDEQLKSGTASVVCLLNNFYPREAKVQWKVDNALQSGNSQESVTEQDSKDSTYSLSSTLTLSKADYEKHKVYACEVTHQGLSSPVTKSFNRGEC
B12: Hu127H8L5 (antibody, human IgG1, kappa, L234A L235A)
heavy: not shown
light: B11 light
B13: Hu127H8L6 (antibody, human IgG1, kappa, L234A L235A)
heavy: not shown
light: B11 light with D17Q, A47P
B14: Hu127H7L6 (antibody, human IgG1, kappa, L234A L235A)
heavy: not shown
light: B11 light with D17Q, A47P
B15: CHI-102 (antibody, human IgG1, kappa, V domains shown)
VH: DVKLVESGEGLVKPGGSLKLSCAASGFTFSTYAMSWVRQTPEKRLEWVAYISRGGDYIYYADTVKGRFTISRDNARNTLYLQMSSLKSEDTAMYYCTRDQTTVVVHWYFDVWGTGTTVTVSS
VL: QIVLTQSPAIMSASPGEKVTMTCSASSSINYMHWYQQKPGTSPKRWIYDTSKLASGVPARFSGSGSGTSYSLTISSMEAGDAATYYCHQRNSYTFGGGTKLEIKR
B16: Hu102H3L6 (antibody, human IgG1, kappa, L234A L235A, V domains shown)
VH: B1 VH with G33A, N52S, S53R, N56D, R100Q, I103V
VL: DIQLTQSPSSLSASVGDRVTITCSASSSINYMHWYQQKPGKSPKRWIYDTSKLASGVPSRFSGSGSGTDYTLTISSLQPEDFATYYCHQRNSYTFGGGTKVEIKR
B17: Hu102H5L6 (antibody, human IgG1, kappa, L234A L235A, V domains shown)
VH: B1 VH with N52S, S53R, N56D, R100Q, I103V
VL: B16 VL

What follows are binders tested against T1, human NPR1 full-length protein … (assay: cell-based or functional assay).

cGMP production: EC50 [µM] | cGMP production: Emax | cGMP production: Emin | Binder
0.116 | 0.43 | 0.22 | B1
0.185 | 0.45 | 0.143 | B2

Target: T1, human NPR1 full-length protein …
Test: cell-based or functional assay
Remark: another data set of the same source

cGMP production: EC50 [µM] | cGMP production: Emax | cGMP production: Emin | Binder
0.0456 | 0.6 | 0.077 | B3
0.0514 | 0.48 | 0.087 | B4
0.0558 | 0.5 | 0.081 | B5
0.0626 | 0.45 | 0.083 | B6
0.0565 | 0.54 | 0.066 | B7
0.0486 | 0.46 | 0.072 | B8
0.0324 | 0.59 | 0.068 | B9
0.0385 | 0.54 | 0.073 | B10
0.0426 | 0.51 | 0.068 | B11
0.042 | 0.43 | 0.065 | B12
0.0366 | 0.42 | 0.068 | B13
0.0355 | 0.49 | 0.063 | B14

Target: T1, human NPR1 full-length protein …
Test: cell-based or functional assay
Remark: another data set of the same source

cGMP production: EC50 [µM] | cGMP production: Emax | cGMP production: Emin | Binder
0.0549 | 0.57 | 0.23 | B15
0.0485 | 0.61 | 0.16 | B16
0.0436 | 0.59 | 0.21 | B17
